Laboratory results taken from article PMC3420917, “A Combinatorial Amino Acid Code for RNA Recognition by Pentatricopeptide Repeat Proteins” (PLoS Genetics, 2012).
Where a chain is given by its changes, count along the chain named.

Legend:
PPR10 TN variant [1] = molecular target: T1, PPR10 TN variant (maize, UniProt B8Y6I0 96-786, N284T;D314N;N319T); assay: EMSA; EMSA: radiolabeled RNA 15 pM, protein 0, 5, 10, 20 nM; binding buffer and temperature by reference [12]; protein stock in 400 mM NaCl, 50 mM Tris-HCl pH 7.5, 5; conditions: protein: recombinant; tags: MBP fusion removed by TEV cleavage; label: radiolabeled; single-stranded
T1 sequence: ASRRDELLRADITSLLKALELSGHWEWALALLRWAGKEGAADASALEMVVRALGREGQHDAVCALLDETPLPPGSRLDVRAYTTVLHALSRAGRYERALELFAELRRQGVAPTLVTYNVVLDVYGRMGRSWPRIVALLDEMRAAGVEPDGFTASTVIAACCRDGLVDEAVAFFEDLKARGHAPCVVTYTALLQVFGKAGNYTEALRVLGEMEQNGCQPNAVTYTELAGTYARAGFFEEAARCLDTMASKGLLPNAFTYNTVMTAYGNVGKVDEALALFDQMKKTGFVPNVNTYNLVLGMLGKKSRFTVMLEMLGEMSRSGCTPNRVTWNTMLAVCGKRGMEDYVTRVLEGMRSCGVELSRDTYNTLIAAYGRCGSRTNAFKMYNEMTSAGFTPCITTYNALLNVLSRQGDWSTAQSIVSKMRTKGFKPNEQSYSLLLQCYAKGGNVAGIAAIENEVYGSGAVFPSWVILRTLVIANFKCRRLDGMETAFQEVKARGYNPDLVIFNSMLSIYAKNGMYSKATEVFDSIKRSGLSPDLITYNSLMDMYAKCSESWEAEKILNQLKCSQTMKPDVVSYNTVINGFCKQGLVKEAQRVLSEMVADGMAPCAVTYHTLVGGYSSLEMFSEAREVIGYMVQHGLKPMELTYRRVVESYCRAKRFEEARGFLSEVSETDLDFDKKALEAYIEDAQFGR

PPR10 TD variant [2] = molecular target: T2, PPR10 TD variant (maize, UniProt B8Y6I0 96-786, N284T;N319T;N349D); assay: as above; conditions: protein: recombinant; tags: MBP fusion removed by TEV cleavage; label: radiolabeled; single-stranded
T2 sequence: T1 sequence with N219D, N254D

[3] = molecular target: the molecule itself; assay: AUC; sedimentation velocity; rPPR10 alone at 3, 6 and 12 µM; 20°C, 50,000 rpm, interference optics; 250 mM NaCl, 50 mM Tris-HCl pH 7.5, 5 mM ß-mercaptoethanol; monomer to dimer
rPPR10 wild-type = molecular target: T3, rPPR10 wild-type (maize, UniProt B8Y6I0 96-786); assay: EMSA; EMSA: radiolabeled RNA 15 pM, protein 0, 5, 10, 20 nM; binding buffer and temperature by reference [12]; protein stock in 400 mM NaCl, 50 mM Tris-HCl pH 7.5, 5; conditions: protein: recombinant; tags: MBP fusion removed by TEV cleavage; label: radiolabeled; single-stranded
T3 sequence: T1 sequence with T189N, N219D, T224N

PPR10 TN variant [4] = molecular target: T1, PPR10 TN variant; assay: EMSA; high affinity; EMSA: radiolabeled RNA 15 pM, protein 0, 5, 10, 20 nM; binding buffer and temperature by reference [12]; protein stock in 400 mM NaCl, 50 mM Tris-HCl pH 7.5, 5; conditions: protein: recombinant; tags: MBP fusion removed by TEV cleavage; label: radiolabeled; single-stranded
PPR10 TD variant [5] = molecular target: T2, PPR10 TD variant; assay: as above; conditions: protein: recombinant; tags: MBP fusion removed by TEV cleavage; label: radiolabeled; single-stranded

GUAUCCUUAACCAUUUC (ssRNA) [wild-type RNA (EMSA)]: no binding (PPR10 TN variant [1]); no binding (PPR10 TD variant [2]).

B1: Recombinant PPR10 (natural protein, maize, UniProt B8Y6I0 96-786, looked up)
chain: T1 sequence with T189N, N219D, T224N
notes: PPR10, maize chloroplast pentatricopeptide repeat protein (19 PPR motifs); mature PPR10 lacking the plastid targeting peptide; monomeric molecular weight of rPPR10 printed as 82.6 kDa; also called rPPR10
In the case of B1, the “stoichiometry N” value [3] is reported as 2.

GUAAACUUAACCAUUUC (ssRNA) [AA RNA]: no binding (rPPR10 wild-type); binds (PPR10 TN variant [4]).

GUAGGCUUAACCAUUUC (ssRNA) [GG RNA]: no binding (rPPR10 wild-type); binds (PPR10 TD variant [5]).
